± gives the standard deviation.

This data set in a line: protein stability index of a GFP-peptide fusion (GPS, HEK-293T) (PSI 1-6); higher = more stable.
Setting [1] is: treatment: DMSO, c terminus: a fixed tail appended.
Where [2] appears, read: treatment: MLN4924 1 uM, 8 h, c terminus: a fixed tail appended.
The mark [3] stands for this setting: treatment: DMSO, c terminus: native.
[4] abbreviates: treatment: MLN4924 1 uM, 8 h, c terminus: native.
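Also: 24-mer peptide tiles fused after GFP, lentivirally expressed, FACS-sorted into six equal bins by GFP/DsRed ratio, decoded by Illumina sequencing, PSI is the read-weighted mean bin number.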

Take PSDLDQFSDSSLIEDSQALHKRPK [LURAP1L]: the protein stability index by setting is: under setting [1], 5.49 ± 0.24; under setting [2], 5.43 ± 0.11.

In the case of PSDPPAMSPGPLDALSSPTSVQEA [C2CD2L], the protein stability index runs as follows: under setting [1], 5.54 ± 0.18; under setting [2], 5.42 ± 0.2.

Turning to PSLSPGSSCVKYLIFLSNFPFSLL [TSPAN10], the protein stability index by setting is: under setting [1], 2.8 ± 0.85; under setting [2], 2.83 ± 0.6.

Consider PSPSEVITPWTPSPSEKNSSFTWS [SMTNL2], for which the protein stability index was 4.22 ± 0.095 under setting [1] and 4 ± 0.062 under setting [2].

With PTHPSSTHALAEWASRREAFAQRP [CDC25B], the protein stability index runs as follows: under setting [1], 4 ± 0.26; under setting [2], 3.91 ± 0.3.

Turning to PTIDTGYDSQPQDVLGIRQLERPL [TRAF3IP2], the protein stability index by setting is: under setting [1], 4.2 ± 0.28; under setting [2], 4.4 ± 0.37.

Consider PTPDDHVFRWLAYSYASTHRLMTD [CPXM2], for which the protein stability index reads like this: under setting [1], 2.64 ± 0.49; under setting [2], 2.62 ± 0.59.

In the case of PTPKCLRLCFFPFVENGHSESSGQ [CFHR2], the protein stability index was 2.54 ± 0.093 under setting [1] and 2.72 ± 0.24 under setting [2].

For PTRNDLESGLGHFSLRVHTGCHKK, the protein stability index amounted to 4.06 ± 0.18 under setting [1] and 4.11 ± 0.18 under setting [2].

Sequence PVANSGTKPKTTAIQGISEKEKAE [DLC1] displayed a protein stability index under setting [1] of 5.51 ± 0.28 and a protein stability index under setting [2] of 5.68 ± 0.28.

As to PVGRSWHSLTPVSSDHLFLFGGFT [KLHDC2], the protein stability index was determined as 2.3 ± 0.53 under setting [1] and 1.87 ± 0.096 under setting [2].

With PVIIAAVGTRQNEELPCTCPLCTS [RHOBTB3], the protein stability index was 3.76 ± 0.37 under setting [1] and 3.92 ± 0.35 under setting [2].

For PVLQSRTGLVYDQNMMNHCNLWDS [HDAC6], the protein stability index amounted to 2.75 ± 0.41 under setting [1] and 2.93 ± 0.33 under setting [2].

In the case of PVPSAPVIDLAESLVADNCVTLVW [FSD1], the protein stability index is, setting by setting: under setting [1], 2.56 ± 0.37; under setting [2], 2.1 ± 0.24.

Regarding PVRKLYDDCSSTIVEDPQTKCEYM [ESRRG], the protein stability index runs as follows: under setting [1], 4.47 ± 0.21; under setting [2], 4.64 ± 0.19.

For the sequence PYTELRKQPLRKYVTPSDFDQLKQ [EFHC1], the protein stability index is 3.57 ± 0.2 under setting [1] and 3.51 ± 0.11 under setting [2].

For PYTPSPSSSRPISPGLSYASHTVG [CCDC6], the protein stability index runs as follows: under setting [1], 3.84 ± 0.17; under setting [2], 3.69 ± 0.19.

On to QAEVLSRQITSPVSGINGDIRAKK [HNF4A], for which the protein stability index reads like this: under setting [1], 5.05 ± 0.22; under setting [2], 5.09 ± 0.036.

For the sequence QAFQLPKLGALLSRCRKLVEYFQQ [ZBED1], the protein stability index runs as follows: under setting [1], 2.52 ± 0.5; under setting [2], 2.43 ± 0.29.

Regarding QALAQAIKEAKEQHPDMSVTKVVV [EPB41L3], the protein stability index was 2.44 ± 0.34 under setting [1] and 2.53 ± 0.27 under setting [2].

Turning to QALLRISLDKVQRSLGPRAPSLRR [SERTAD3], the protein stability index came out at 2.68 ± 0.46 under setting [1] and 2.62 ± 0.36 under setting [2].

In the case of QAMEEDLIVGLQGMDLNLEAEALA [HDAC6], the protein stability index was determined as 4.8 ± 0.23 under setting [1] and 4.92 ± 0.25 under setting [2].

QAPGQPPGNQAEHGAVTVGGTSVG [ZBTB22] showed a protein stability index under setting [1] of 4.9 ± 0.43 and a protein stability index under setting [2] of 5.17 ± 0.21.

Regarding QCDALIDALNRRKAQLLARVNKEH [TRIM9], the protein stability index by setting is: under setting [1], 3.05 ± 0.2; under setting [2], 3.27 ± 0.23.

On to QDNNCHFDAALVSFINFFTSVLAT [SLC6A17], for which the protein stability index is, setting by setting: under setting [1], 2.91 ± 0.3; under setting [2], 2.75 ± 0.3.

As for QDPLKFYKKIYFCHSCQLYLPSTE [IQUB], the protein stability index is, setting by setting: under setting [1], 1.94 ± 0.41; under setting [2], 2.12 ± 0.66.

For QDVVQAADLLLLTDLKTLCCEFLE [GAN], the protein stability index under setting [1] came out at 2.55 ± 0.13 and the protein stability index under setting [2] came out at 2.6 ± 0.27.

QEILHRDLKLGNFFINEAMELKVG [PLK2] showed a protein stability index under setting [1] of 2.58 ± 0.25 and a protein stability index under setting [2] of 2.76 ± 0.31.

Turning to QEPDFIDDIEEKTPISNEVEMESE [KMT2E], the protein stability index reads like this: under setting [1], 5.24 ± 0.22; under setting [2], 5.43 ± 0.23.

On to QEPEVPCAAVLPGKPGDRNCPEFP [RSPH3], for which the protein stability index was 5.21 ± 0.12 under setting [1] and 5.13 ± 0.14 under setting [2].

With QEVPHEGPMCDLLWSDPDDRGGWG [PPP2CA], the protein stability index under setting [1] is 4.39 ± 0.32 and the protein stability index under setting [2] came to 4.61 ± 0.2.

QGSQASQAPPVPGPPPGAPHTPQT [NR2F2]: the protein stability index was found to be 5.13 ± 0.27 under setting [1] and 5 ± 0.51 under setting [2].

Take QHYTETALDEIKLLKCVRESDPSD [SRPK2]: the protein stability index runs as follows: under setting [1], 4.82 ± 0.22; under setting [2], 4.92 ± 0.16.

Turning to QLEEKLEIANEDRKHALERFEQEA [CCDC89], the protein stability index is 5.4 ± 0.19 under setting [1] and 5.4 ± 0.12 under setting [2].

Consider QLMTSQFISVFSNLLESKADGIEV [ZER1], for which the protein stability index was determined as 2.89 ± 0.62 under setting [1] and 2.5 ± 0.54 under setting [2].

Regarding QLSRELSTLRNLFKQLPEPLLASS [CEBPB], the protein stability index under setting [1] was 2.28 ± 0.1 and the protein stability index under setting [2] came out at 2.37 ± 0.29.

In the case of QMASQSSASHYKLQVIKALKSSGL [M1AP], the protein stability index by setting is: under setting [1], 2.82 ± 0.26; under setting [2], 2.77 ± 0.21.

As to QMELLLVNKLKWNLAAMTPHDFIE [CCND1], the protein stability index under setting [1] was 2.91 ± 0.6 and the protein stability index under setting [2] worked out at 2.71 ± 0.5.

With QNNENNISCVERGWSTPPKCRSTI [CFHR2], the protein stability index by setting is: under setting [1], 3.97 ± 0.29; under setting [2], 4.11 ± 0.34.

Consider QNVVVKTLWKHQFAWPFYQPVDAI [BRD3], for which the protein stability index is 2.31 ± 0.46 under setting [1] and 2.29 ± 0.45 under setting [2].

Consider QPAKKPLLWSDPADNKIVSHLLVA [ESRRG], for which the protein stability index runs as follows: under setting [1], 2.36 ± 0.17; under setting [2], 2.63 ± 0.26.

Take QPPEFRNESSLASTLKTLLFFTAL [VMA21]: the protein stability index under setting [1] turned out to be 2.42 ± 0.32 and the protein stability index under setting [2] amounted to 2.39 ± 0.11.

On to QPSQQQQPPPQEEPGTPSSSPDDK [KLHL14], for which the protein stability index was found to be 5.6 ± 0.26 under setting [1] and 5.59 ± 0.15 under setting [2].

On to QPYPLPHVRHMAYQLCHALRFLHE [CLK3], for which the protein stability index worked out at 2.34 ± 0.1 under setting [1] and 2.1 ± 0.23 under setting [2].

On to QQHRQGRSHHLEMVIQLLAIMCVS [PTGFR], for which the protein stability index by setting is: under setting [1], 2.61 ± 0.51; under setting [2], 2.12 ± 0.44.

Regarding QRFRQFQYREAAGPHEAFNKLWEL [ZNF449], the protein stability index runs as follows: under setting [1], 2.17 ± 0.18; under setting [2], 2.33 ± 0.19.

Turning to QRGQEPLGPGALHFDLRDDDDAEE [TCF25], the protein stability index under setting [1] was 5.36 ± 0.39 and the protein stability index under setting [2] is 5.53 ± 0.33.

As for QRPLVSVTVSDASWVSELLWSLFV [AUP1], the protein stability index is, setting by setting: under setting [1], 2.36 ± 0.2; under setting [2], 2.14 ± 0.2.

QRPRFITSGGSNIIYVASNHFVWR [VPS39]: the protein stability index runs as follows: under setting [1], 2.12 ± 0.23; under setting [2], 2.49 ± 0.25.

With QSDEEQDSVKVALLETNPYLLALT [CLPTM1], the protein stability index by setting is: under setting [1], 3.92 ± 0.19; under setting [2], 4.16 ± 0.3.

As to QSWMWRGLTFLLPFLFFGHFWQLF [TMEM120A], the protein stability index reads like this: under setting [1], 2.66 ± 1.1; under setting [2], 2.79 ± 0.25.

In the case of QTHSNTIVVSLQSKLASMSNDFKS [STX5], the protein stability index runs as follows: under setting [1], 2.8 ± 0.11; under setting [2], 2.92 ± 0.24.

On to QVDVRFFGHHHQRAWIPSENIQDI [ZMYND11], for which the protein stability index reads like this: under setting [1], 2.74 ± 0.22; under setting [2], 2.94 ± 0.17.

As to QVQCHSYTGYCWCVTPNGRPISGT [SMOC2], the protein stability index was 2.08 ± 0.26 under setting [1] and 2.37 ± 0.38 under setting [2].

As for QVSHDFLETRFKIQQLLEPQQYMA [FBXO34], the protein stability index reads like this: under setting [1], 3.85 ± 0.49; under setting [2], 4.15 ± 0.29.

For the sequence RACSHLIRLMQRCWQGDPRVRPTF [RIPK4], the protein stability index runs as follows: under setting [1], 2.87 ± 0.45; under setting [2], 2.83 ± 0.2.

Consider RALEEVEMKLQKNFLTQRENTIAG [C10orf62], for which the protein stability index by setting is: under setting [1], 3.48 ± 0.081; under setting [2], 3.73 ± 0.33.

For RALLRRFPRMLLVDRLPGLQGALD [ZSWIM9], the protein stability index amounted to 2.49 ± 0.25 under setting [1] and 2.52 ± 0.24 under setting [2].

With RCFYTRKDVRRHLVVHTGCKDFLC [PLAGL1], the protein stability index reads like this: under setting [1], 2.11 ± 0.47; under setting [2], 2.19 ± 0.39.

With RCLHMDQLQDFNIPQAGGWGPWGP [ADAMTS4], the protein stability index runs as follows: under setting [1], 2.24 ± 0.35; under setting [2], 2.24 ± 0.75.

On to RCMQCDAKFDFLTRKHHCRRCGKC [ZFYVE21], for which the protein stability index reads like this: under setting [1], 3.94 ± 0.34; under setting [2], 4.3 ± 0.3.

For the sequence RCRLSLDDRVLSSLVRDTIARVHG [POP5], the protein stability index reads like this: under setting [1], 2.29 ± 0.25; under setting [2], 2.35 ± 0.27.

On to RDQIFRYVHDPECVATTGDITVSV [FBXO3], for which the protein stability index is, setting by setting: under setting [1], 2.52 ± 0.2; under setting [2], 2.42 ± 0.27.

RDSYSSSSRGAPRGGGRGGSRSDR [RBMX]: the protein stability index is, setting by setting: under setting [1], 5.41 ± 0.24; under setting [2], 5.44 ± 0.17.

On to REAGFHQYEVSNFARNGALSTHNW [RSAD1], for which the protein stability index by setting is: under setting [1], 2.97 ± 0.28; under setting [2], 3.08 ± 0.2.

On to REFKVTDARDGQSRTVRQFQFTDW [PTPRD], for which the protein stability index amounted to 3.16 ± 0.34 under setting [1] and 3.11 ± 0.58 under setting [2].

Consider REHAKARVDHGAEIITQSPGRSSV [MAP2], for which the protein stability index by setting is: under setting [1], 4.75 ± 0.11; under setting [2], 4.89 ± 0.12.

Turning to REHELLCRADHGLLLERAAAGSPR [ISL2], the protein stability index stood at 3.82 ± 0.31 under setting [1] and 3.89 ± 0.062 under setting [2].

Regarding REKIMKLPLPESLKAYLTYFRDK [PCMTD1], the protein stability index stood at 2.05 ± 0.36 under setting [3] and 2.59 ± 0.34 under setting [4].

Take RELESREAELRRRDTFYKEQLERI [CHCHD6]: the protein stability index under setting [1] was 4.56 ± 0.12 and the protein stability index under setting [2] came out at 4.87 ± 0.39.

For the sequence REMVMYSITVAFWLLNSWLWFRR [MFF], the protein stability index is 2.27 ± 0.96 under setting [3] and 2.48 ± 0.86 under setting [4].

For RGEAEAFAIGARARAEAEQMAKKA [FLOT1], the protein stability index runs as follows: under setting [1], 5.33 ± 0.27; under setting [2], 5.17 ± 0.26.

Source of the values: the supplement of paper PMC10567573.
